Substitutions are numbered along the chain they refer to.
T1: Cyno nectin-4 ECD-6His (TNT-255) (cynomolgus, UniProt Q96NY8 32-349 (human entry))
T1 construct: entry includes the 6His tag
T1 chain: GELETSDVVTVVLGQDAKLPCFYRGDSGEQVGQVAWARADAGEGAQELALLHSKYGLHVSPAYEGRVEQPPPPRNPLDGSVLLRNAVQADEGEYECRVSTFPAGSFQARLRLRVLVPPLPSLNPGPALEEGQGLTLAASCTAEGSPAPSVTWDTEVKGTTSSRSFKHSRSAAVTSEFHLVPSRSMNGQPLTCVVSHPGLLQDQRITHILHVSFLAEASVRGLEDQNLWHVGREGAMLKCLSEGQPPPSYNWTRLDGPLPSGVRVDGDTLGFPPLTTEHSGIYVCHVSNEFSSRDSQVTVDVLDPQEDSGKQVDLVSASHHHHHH

T2: Human nectin-4-IgV-6His (TNT-252) (human, UniProt Q96NY8 32-147)
T2 construct: entry includes the 6His tag
T2 sequence: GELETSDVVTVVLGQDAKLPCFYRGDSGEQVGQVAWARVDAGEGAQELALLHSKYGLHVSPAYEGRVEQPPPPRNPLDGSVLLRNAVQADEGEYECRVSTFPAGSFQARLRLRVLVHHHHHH

T3: Mouse nectin-4 ECD-6His (TNT-250) (mouse, UniProt Q8R007 31-347)
T3 construct: entry includes the 6His tag; also called mouse nectin-4-LCD
T3 sequence: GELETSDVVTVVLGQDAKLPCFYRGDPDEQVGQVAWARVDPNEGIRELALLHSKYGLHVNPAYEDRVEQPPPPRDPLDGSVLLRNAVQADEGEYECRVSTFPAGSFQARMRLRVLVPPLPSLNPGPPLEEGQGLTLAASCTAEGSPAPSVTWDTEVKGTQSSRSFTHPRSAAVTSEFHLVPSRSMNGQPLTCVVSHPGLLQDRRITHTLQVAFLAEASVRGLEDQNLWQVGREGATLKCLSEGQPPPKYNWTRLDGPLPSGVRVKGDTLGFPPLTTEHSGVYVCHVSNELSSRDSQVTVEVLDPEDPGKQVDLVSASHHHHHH

T4: Human nectin-4 ECD-6His (TNT-175) (human, UniProt Q96NY8 32-349)
T4 construct: the entry holds the extracellular domain with the C-terminal 6His tag
T4 sequence: T1 chain with A39V, V230I

B1: TNT-336 (antibody, V domains shown)
VH: KVQLVESGGGLVQPGGSLRLSCEASGFTFSNYWMHWVRQVPGEGLVWVSRLNNGGTSTRYADSVKSRFTISRDNAKNTLYLQMNSLRAEDTAVYYCVRDWYFDLWGRGTLVTVSS
VL: QLVLTQSPSASASLGASVKLTCTLSSGHSFYAIAWHQQQPEKGPRYLMQVNSNGSHNKGDGIPDRFSGSSSGAERYLTISSLQSEDEADYYCQSWDTDIWVFGGGTKLTVLG
notes: human IgG1
B2: TNT-335 (antibody, V domains shown)
VH: QVQLQESGPGLVKPSETLSLTCTVSGGSISSYYWSWIRQPPGKGLEWIGYIHYSGISNYNPSLKSRVAISLDTSNNHFSLKLTSLTAADTAVYFCARGSYWFDPWGQGTLVTVSS
VL: QSVLTQPPSASGTPGQRVTISCSGSSSNIGSDYIYWYQQLPGTAPKLLIYSNHQRPSGVPDRFSGSKSGTSASLAISGLRSEDEADYYCAAWEDSLSGPIFGGGTKLTVLG
notes: human IgG1
B3: TNT-333 (antibody, V domains shown)
VH: QVQLQESGPGLVKPSETLSLTCTISGGSISSYYWSWIRQPPGKGLEWIGYIFYIGNTNYYPSLKSRVTISVDASKNQFSLKLSSVTAADTAVYYCARSYPYWYFDLWGRGTLVTVSS
VL: QSVLTQPPSVSAAPGQKVTISCSGSSSNIGNNYVSWYQQLPGTAPKLLISDNNKRPSGIPDRFSGSKSGTSATLGITGLQTGDEADYYCGTWDSSLSAGVVFGGGTKLTVLG
notes: human IgG1
B4: TNT-334 (antibody, V domains shown)
VH: EVQLVESGGGLVQPGGSLRLSCAASGFTFSRYWMHWVRQAPGKGLVWVSRINSDGSSSNYADSVKGRFTFSRDNAKNTLYLQMNSLRAEDTAVYFCVRDNWYFDYWGQGTLVTVSS
VL: EIVMTQSPATLPVSPGERATLSCRASQSVSINLAWYQQKPGQAPRLLIYGVSTRATGIPARFSGSGSGTEFTLTISGLQSEDFAVYYCQQYNNWPRTFGQGTKVEIKR
notes: human IgG1
B5: TNT-332 (antibody, V domains shown)
VH: QVQLVQSGAEAKKPGASVRVSCKTSGYTFTNYYIHWVRQAPGQGLEWMGIINPTLDSTSYAQKFQDRVTMTRDTSTNTDYMDLSSLRFEDTAVYYCARSAGFDAFDIWGQGTMVTVSS
VL: DIQLTQSPSFLSASVGDKVTITCRASQGINSYLAWYQQKPGKAPKLLIYSASTLQGGVPSRFSGSGSGTEFTLTISNLQPADFATYCCQQLNSYPFTFGPGTKVDIKR
notes: human IgG1
B6: TNT-337 (antibody, V domains shown)
VH: EVQLVESGGGLVQPGGSLRLSCAASGFTFSNYDMSWVRQAPGKGLEWVATISSGGSYTYYVDSVKGRFTISRDNAKNSLYLQMNSLRAEDTAVYYCARQELGSYYAMDYWGQGTTVTVSS
VL: DIVMTQTPLSLPVTPGEPASISCRSSQSIVHSNANTYLEWYLQKPGQSPQLLIYKVSNRFSGVPDRFSGSGSGTDFTLKISRVEAEDVGVYYCFQGSHVPYTFGGGTKVEIKR
notes: human IgG1

Molecular target: T1, Cyno nectin-4 ECD-6His (TNT-255)
Test: SPR Biacore 8K, mAb on protein A
Method: (§1) The running buffer was 10 mM HEPES, pH 7.4, 150 mM NaCl, 3 mM EDTA, 0.05% (v/v) Surfactant P20 (HBS-EP+). […] The nectin-4 analytes were injected in either single-cycle kinetics or multi-cycle kinetics mode at nominal starting concentrations of 300 nM or 900 nM with 3-fold serial dilutions. Association times were monitored for 120 s, and dissociation times were monitored 1800 s at 30 μL/min flow rate. The surfaces were regenerated with 10 mM glycine at pH1.7 or 75 mM phosphoric acid at pH1.6 for two pulses of 15 s at 30 μL/min flow rate.
(§2) The data were processed and analyzed with Biacore 8K Evaluation Software Version 3.0.12.15655 (Cytiva, Global Life Sciences Solutions USA LLC, Marlborough, MA). […] The responses from the nearest buffer blank injection were then subtracted from the reference subtracted data (2-1) to yield double-referenced data. These double-reference data were fit to a simple 1:1 Langmuir binding model with mass transport to determine the apparent association (ka) and dissociation rate constants (kd). The apparent equilibrium dissociation constant or affinity constant was then calculated based on their ratio as (KD=kd/ka).

Row | Kd [nM] | Binder | binding result
1 |  | B1 | no binding (tested: up to 300 or 900 nM analyte)
2 | 1.28 | B2 | 
3 | 7.43 | B3 | 
4 | 95.3 | B4 | 
5 | 7.2 | B5 | 
6 | 286 | B6 | 

These binders were tested against T2, Human nectin-4-IgV-6His (TNT-252) (assay: SPR Biacore 8K, mAb on protein A).
Method: as §1, §2

Row | Kd [nM] | Binder | binding result
7 | 104 | B1 | 
8 | 0.985 | B2 | 
9 |  | B3 | no binding (tested: up to 300 or 900 nM analyte)
10 | 46.3 | B4 | 
11 |  | B5 | no binding (tested: up to 300 or 900 nM analyte)
12 | 195 | B6 | 

The binders below were run against T3, Mouse nectin-4 ECD-6His (TNT-250) (assay: SPR Biacore 8K, mAb on protein A).
Method: as §1, §2

Row | Kd [nM] | Binder | binding result
13 |  | B1 | no binding (tested: up to 300 or 900 nM analyte)
14 |  | B2 | no binding (tested: up to 300 or 900 nM analyte)
15 |  | B3 | no binding (tested: up to 300 or 900 nM analyte)
16 |  | B4 | no binding (tested: up to 300 or 900 nM analyte)
17 |  | B5 | no binding (tested: up to 300 or 900 nM analyte)
18 | 318 | B6 | 

The binders below were run against T4, Human nectin-4 ECD-6His (TNT-175) (assay: SPR Biacore 8K, mAb on protein A).
Method: as §1, §2

Row | Kd [nM] | Binder
19 | 111 | B1
20 | 1.83 | B2
21 | 6.18 | B3
22 | 71.5 | B4
23 | 7.6 | B5
24 | 217 | B6
